One test concerns the target T1, FGFR-2b (Homo sapiens, UniProt P21802).
T1 construct: purchased R&D Systems
Kind of test: BiaCore binding kinetics. As to conditions: BiaCore kinetic analysis. For orientation: Surface plasmon resonance follows binding to a sensor surface in real time, without labels.

Another test deals with T2, FGFR-3b (Homo sapiens, UniProt P22607).
T2 construct: purchased R&D Systems
Kind of test: BiaCore binding kinetics. As to conditions: BiaCore kinetic analysis.

The next test has as its target T3, FGFR-3c (Homo sapiens, UniProt P22607).
T3 construct: purchased R&D Systems
Kind of test: BiaCore binding kinetics. As to conditions: BiaCore kinetic analysis.

The next test has as its target T4, FGFR-1 (Homo sapiens, UniProt P11362).
T4 construct: expressed in transfected cells; host or cells: L6 (ATCC), pBABE retroviral vector
Kind of test: Phosphorylation assay in FGFR-1 expressing L6 cells (western blot). The format is cell-based. As to conditions: anti-phospho-tyrosine western blot. As to the method:
FGFR-1 expressing L6 cells were cultured in 10% FBS, DMEM, in a 24-well tissue culture plate till confluency. Cells were Serum starved in 5 μg/ml heparin, 0.1% FBS, DMEM, for 8-24 hrs. Either FR1-H7 or FR1-A1 was added to the media and allowed to bind with the cell surface receptors at 37° C. for 1 hr. Cells were then stimulated with 20 ng/ml FGFs at 37° C. for 10 min before they were lyzed using ice-cold lysis buffer for 30 min. Cell lysate was subjected to SDS-PAGE followed by western blot. Membranes were probed with anti-phospho-tyrosine antibody (Cell Signaling Technology, Inc., Beverly, Mass.) for detection of phosphorylated FGFR-1 receptors according to supplier's instructions.
The phosphorylation assay for small molecules is essentially the same as the phosphorylation assay described in Examples 7 and 15 and Phosphorylation Assay, except that small molecule compounds was used instead of FGFR-1 antibodies in all occasions. […] Equal amount of cell lysates were applied to each sample lane. Receptor auto-phosphorylation was probed using anti-phospho-tyrosine antibody as described in the original patent.
(In general: Immunoblotting shows a protein as a band on a membrane.)

Another test deals with T5, FGFR-1c (Homo sapiens, UniProt P11362).
T5 construct: purchased R&D Systems
T5 sequence (P11362 22-822): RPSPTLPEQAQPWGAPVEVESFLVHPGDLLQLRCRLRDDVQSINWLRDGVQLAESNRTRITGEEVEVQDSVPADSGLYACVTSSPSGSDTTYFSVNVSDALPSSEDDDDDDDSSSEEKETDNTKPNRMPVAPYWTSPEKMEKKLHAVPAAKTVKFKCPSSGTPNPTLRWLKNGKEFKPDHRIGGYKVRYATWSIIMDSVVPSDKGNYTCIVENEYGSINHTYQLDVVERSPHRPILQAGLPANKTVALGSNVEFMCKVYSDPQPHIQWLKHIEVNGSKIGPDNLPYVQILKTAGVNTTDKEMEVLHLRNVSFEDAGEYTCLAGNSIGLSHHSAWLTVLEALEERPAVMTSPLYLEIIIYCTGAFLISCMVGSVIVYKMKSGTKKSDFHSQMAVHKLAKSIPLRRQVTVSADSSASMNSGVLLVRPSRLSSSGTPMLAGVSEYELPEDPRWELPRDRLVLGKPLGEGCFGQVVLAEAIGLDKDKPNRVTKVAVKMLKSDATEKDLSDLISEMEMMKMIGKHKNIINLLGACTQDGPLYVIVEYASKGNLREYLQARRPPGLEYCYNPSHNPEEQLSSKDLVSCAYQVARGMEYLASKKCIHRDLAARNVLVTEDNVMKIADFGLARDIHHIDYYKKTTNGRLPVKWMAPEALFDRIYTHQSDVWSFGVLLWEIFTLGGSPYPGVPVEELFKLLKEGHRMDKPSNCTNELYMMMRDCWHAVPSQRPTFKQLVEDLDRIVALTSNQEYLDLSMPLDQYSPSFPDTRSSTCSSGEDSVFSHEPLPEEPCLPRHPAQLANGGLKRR
Kind of test: BiaCore binding kinetics. Conditions: kinetic analyses; read-out: KD, FGFR-1c.

The target in the next test is T6, FGFR-2c (Homo sapiens, UniProt P21802).
T6 construct: purchased R&D Systems
T6 sequence (P21802 22-821): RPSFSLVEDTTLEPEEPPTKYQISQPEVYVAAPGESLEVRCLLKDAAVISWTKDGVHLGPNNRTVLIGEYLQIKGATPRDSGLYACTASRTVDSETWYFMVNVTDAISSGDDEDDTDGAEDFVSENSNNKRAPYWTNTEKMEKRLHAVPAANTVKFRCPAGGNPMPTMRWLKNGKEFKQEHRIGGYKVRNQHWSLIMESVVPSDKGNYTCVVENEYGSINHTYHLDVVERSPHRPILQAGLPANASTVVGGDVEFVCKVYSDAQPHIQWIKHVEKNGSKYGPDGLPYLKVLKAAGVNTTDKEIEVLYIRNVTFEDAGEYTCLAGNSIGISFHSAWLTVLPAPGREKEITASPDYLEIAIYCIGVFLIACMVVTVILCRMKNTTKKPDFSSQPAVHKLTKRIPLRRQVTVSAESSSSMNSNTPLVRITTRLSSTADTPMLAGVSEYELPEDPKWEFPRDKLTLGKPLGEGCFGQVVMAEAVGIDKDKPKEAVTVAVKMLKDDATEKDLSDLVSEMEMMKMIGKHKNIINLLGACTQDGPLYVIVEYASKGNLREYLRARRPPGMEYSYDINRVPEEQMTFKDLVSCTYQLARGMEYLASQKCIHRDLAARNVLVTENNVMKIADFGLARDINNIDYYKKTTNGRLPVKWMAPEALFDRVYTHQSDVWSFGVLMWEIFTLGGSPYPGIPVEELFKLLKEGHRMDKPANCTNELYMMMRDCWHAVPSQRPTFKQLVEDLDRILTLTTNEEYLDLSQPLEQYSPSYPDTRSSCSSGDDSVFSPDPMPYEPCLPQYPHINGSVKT
The test can be described thus: BiaCore binding kinetics. As to conditions: BiaCore kinetic analysis.

The subject of test [1] is Human astrocytoma G18 cells. The test can be described thus: Mitogenesis assay (3H-thymidine). The format is cell-based. Conditions: FGF-2 stimulation. As to the method: Human astrocytoma G18 cells were seeded in 96-well tissue culture plates at a concentration of 5×10^4 cells/ml. After attachment, cells were quiesced for 24 hrs in RPMI media (Invitrogen) containing 0.1% FBS and 5 μg/ml heparin. Antibodies were serially diluted, added to the wells, and incubated with the cells at 37° C. for 1 hr. Recombinant FGF-2 was then added to a final concentration of 5 ng/ml. Cells were cultured in an incubator at 37° C. with 5% CO2. Cell growth was determined 24 hrs later by monitoring ^3H-thymidine incorporation as described previously.

Test [2] can be described thus: Repeated-dose study in female athymic nude mice: body weight, food intake, rearing, blood glucose. The format is in vivo. As to conditions: for body weight loss compared to the control: day 5 after two treatments; for reduction of non-fast food intake: between first and second treatments. As to the method: Female athymic nude mice (Cr1:NU/NU-nuBR, Charles River Laboratories, Wilmington, Mass.) were housed 4-5 per cage. Mice were given autoclaved food (Lab Diet #5001, PMI Feeds Inc., St. Louis, Mo.) and water ad libitum. All animal use in this study was conducted in compliance with approved institutional animal care and use protocols, and according to NIH guidelines (Guide for the Care and Use of Laboratory Animals, NIH publication no. 86-23, 1985).
In one assay, mice were injected intraperitoneally (i.p.) with FR1-H7 at 0.19, 1.9, and 19 mg/kg body weight (n=5 per group). In another assay, mice were injected subcutaneously (s.c.) with the antibody, at 0.4, 4, and 40 mg/kg body weight. In control arms, mice were treated with saline i.p. or s.c. In addition, one group of mice was left untreated (n=4). All treatments were given at a volume of 10 μl/g body weight in Saline. Treatments were started on a Wednesday (Day 0) with additional treatments on the following Friday, Monday, Wednesday, and Friday. After this 9-day treatment period mice received no additional treatments.
Alternatively, female athymic nude mice were injected (i.p.) with saline, 2 mg/kg, or 20 mg/kg FR1-A1 on a Monday (Day 0) and Wednesday. Body weights were measured before the first injection, and on Day 2 and Day 5. Food intake per group was measured 2 days after the first injection.
The body weights of all animals were measured 3 times/week. Food consumption, behavior, and serum glucose were evaluated as follows. Food Intake Measurement: Prior to the treatment on Day 2 mice were placed in a new cage and the weight of the food container in the cage top was weighed. Prior to the treatment on Day 5 the weight of the food container was measured again. The difference in the Day 2 to Day 5 food container weight was divided by the number of mice per cage and the number of days between the measurements to give a food intake per mouse per 24 hrs. Activity Measurement: On Day 12, 3 days after the final treatment, mice were placed individually into a new cage and the number of rearings was counted over a 1 min period. Blood Glucose Measurement On Day 16, 7 days after the final treatment, non-fasted blood glucose was measured in blood collected from the tip of the tail using an Ascensia Elite XL blood glucose meter (glucose oxidase method, Bayer, Pittsburg, Pa.).

For test [3], the target named is T7, FGFR-1(IIIc) (Homo sapiens, UniProt P11362). Kind of test: ELISA blocking assay (receptor binding to immobilized FGF). Details: purchased R&D Systems. As to the method:
Recombinant FGFs (R&D systems, Minneapolis, Minn.) were coated on Immulon® 2B microtiter plates (ThermoLab Systems, Franklin, Mass.) at concentrations of 0.5-2 μg/ml for 2 hrs. The plates were then washed with 0.2% Tween20/PBS, and blocked with 5% milk/PBS for 2 hrs before use. Phage or antibody was serially diluted with 5 μg/ml heparin (Sigma, St Louis, Mo.), 5% milk, PBS. Recombinant FGFR-1 (R&D Systems) was then added to a final concentration of 1 μg/ml. The mixture was incubated at room temperature for 1 hr before transfer to the FGF-2 coated plates, and incubated at room temperature for an additional 2 hrs. Plates were then washed 3 times with 0.2% Tween20/PBS. The bound receptors were detected using an anti-human Fc monoclonal antibody coupled with HRP (Pierce Biotechnology Inc., Rockford, Ill.) solution prepared according to supplier's instructions. Data were presented as % inhibition of ligand-receptor binding of the controls.
A general note: ELISA stands for enzyme-linked immunosorbent assay.

Test [4] addresses T7, FGFR-1(IIIc). Kind of test: ELISA binding assay. Details: purchased R&D Systems. As to the method: (§1) Recombinant FGFRs (R&D systems) at a concentration of 1 μg/ml in PBS were coated on 96-well plates at room temperature for 2 hrs. The plates were washed 3 times with 0.2% Tween20/PBS, and blocked with 5% milk/PBS for 2 hrs before use. FR1-H7 or FR1-A1 was added to the plate and serially diluted in 0.2% Tween20/PBS. The plate was incubated at room temperature for 2 more hrs. The captured antibodies were detected using an anti-human light chain monoclonal antibody conjugated with […] (Pierce Biotechnology, Rockford, Ill.) solution prepared according to supplier's instructions.

The next test addresses T8, FGFR-1b (Homo sapiens, UniProt P11362).
T8 construct: purchased R&D Systems
The test can be described thus: BiaCore binding kinetics. Conditions: kinetic analyses.

In another test the test system is other FGFRs. Kind of test: ELISA binding assay. The method, then:
as §1

The next test has as its target T9, FGFR-4 (Homo sapiens, UniProt P22455).
T9 construct: purchased R&D Systems
Kind of test: ELISA binding assay. The method, then:
as §1

Read-outs that look alike come from different tables or passages of the source.

T7 sequence (P11362 22-822): as the sequence (P11362 22-822) above
T4 sequence (P11362 22-822): as above
T1 sequence (P21802 22-822 isoform P21802-3 limits assumed): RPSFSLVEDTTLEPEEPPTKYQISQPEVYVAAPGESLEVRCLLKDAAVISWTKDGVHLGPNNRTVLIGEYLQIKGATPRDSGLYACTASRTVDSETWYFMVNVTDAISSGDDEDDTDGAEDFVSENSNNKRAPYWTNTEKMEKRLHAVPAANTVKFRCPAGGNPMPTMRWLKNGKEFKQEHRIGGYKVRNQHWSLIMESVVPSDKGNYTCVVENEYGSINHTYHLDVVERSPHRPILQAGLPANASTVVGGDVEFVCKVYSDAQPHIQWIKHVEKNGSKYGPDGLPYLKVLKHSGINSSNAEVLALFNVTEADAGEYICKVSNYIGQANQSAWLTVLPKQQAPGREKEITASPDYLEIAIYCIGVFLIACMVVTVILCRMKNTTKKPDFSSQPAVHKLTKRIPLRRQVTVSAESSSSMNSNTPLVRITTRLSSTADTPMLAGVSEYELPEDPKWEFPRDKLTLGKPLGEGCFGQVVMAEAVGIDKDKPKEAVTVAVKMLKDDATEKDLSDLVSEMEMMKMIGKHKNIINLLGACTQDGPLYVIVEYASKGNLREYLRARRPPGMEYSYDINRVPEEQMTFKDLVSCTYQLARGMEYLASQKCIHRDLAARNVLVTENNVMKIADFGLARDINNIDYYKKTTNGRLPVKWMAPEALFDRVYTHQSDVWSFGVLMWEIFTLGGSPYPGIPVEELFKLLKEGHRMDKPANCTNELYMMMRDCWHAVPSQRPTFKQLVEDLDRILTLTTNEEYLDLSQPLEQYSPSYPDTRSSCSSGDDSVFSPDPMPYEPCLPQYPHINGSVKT
T3 sequence (P22607 23-806): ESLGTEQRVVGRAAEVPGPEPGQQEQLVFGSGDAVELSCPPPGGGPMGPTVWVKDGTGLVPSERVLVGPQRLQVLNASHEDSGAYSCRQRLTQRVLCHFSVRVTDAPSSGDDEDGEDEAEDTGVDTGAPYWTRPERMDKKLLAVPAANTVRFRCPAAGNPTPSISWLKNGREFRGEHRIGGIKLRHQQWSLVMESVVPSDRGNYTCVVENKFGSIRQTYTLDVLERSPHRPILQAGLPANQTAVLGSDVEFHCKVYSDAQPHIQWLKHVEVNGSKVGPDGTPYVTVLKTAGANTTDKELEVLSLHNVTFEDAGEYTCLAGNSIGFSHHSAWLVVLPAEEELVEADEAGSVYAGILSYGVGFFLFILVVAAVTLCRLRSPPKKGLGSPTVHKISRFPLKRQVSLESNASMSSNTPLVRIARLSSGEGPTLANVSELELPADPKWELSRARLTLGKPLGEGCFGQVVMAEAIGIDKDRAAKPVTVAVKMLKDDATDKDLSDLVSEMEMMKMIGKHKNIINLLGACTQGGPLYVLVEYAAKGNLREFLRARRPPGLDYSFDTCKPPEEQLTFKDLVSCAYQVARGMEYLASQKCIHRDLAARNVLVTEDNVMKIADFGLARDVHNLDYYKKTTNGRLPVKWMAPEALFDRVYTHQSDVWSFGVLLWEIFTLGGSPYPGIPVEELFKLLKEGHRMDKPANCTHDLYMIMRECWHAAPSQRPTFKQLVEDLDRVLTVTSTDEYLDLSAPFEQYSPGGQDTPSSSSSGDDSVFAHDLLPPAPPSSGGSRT
T8 sequence (P11362 22-822 isoform P11362-19 limits assumed): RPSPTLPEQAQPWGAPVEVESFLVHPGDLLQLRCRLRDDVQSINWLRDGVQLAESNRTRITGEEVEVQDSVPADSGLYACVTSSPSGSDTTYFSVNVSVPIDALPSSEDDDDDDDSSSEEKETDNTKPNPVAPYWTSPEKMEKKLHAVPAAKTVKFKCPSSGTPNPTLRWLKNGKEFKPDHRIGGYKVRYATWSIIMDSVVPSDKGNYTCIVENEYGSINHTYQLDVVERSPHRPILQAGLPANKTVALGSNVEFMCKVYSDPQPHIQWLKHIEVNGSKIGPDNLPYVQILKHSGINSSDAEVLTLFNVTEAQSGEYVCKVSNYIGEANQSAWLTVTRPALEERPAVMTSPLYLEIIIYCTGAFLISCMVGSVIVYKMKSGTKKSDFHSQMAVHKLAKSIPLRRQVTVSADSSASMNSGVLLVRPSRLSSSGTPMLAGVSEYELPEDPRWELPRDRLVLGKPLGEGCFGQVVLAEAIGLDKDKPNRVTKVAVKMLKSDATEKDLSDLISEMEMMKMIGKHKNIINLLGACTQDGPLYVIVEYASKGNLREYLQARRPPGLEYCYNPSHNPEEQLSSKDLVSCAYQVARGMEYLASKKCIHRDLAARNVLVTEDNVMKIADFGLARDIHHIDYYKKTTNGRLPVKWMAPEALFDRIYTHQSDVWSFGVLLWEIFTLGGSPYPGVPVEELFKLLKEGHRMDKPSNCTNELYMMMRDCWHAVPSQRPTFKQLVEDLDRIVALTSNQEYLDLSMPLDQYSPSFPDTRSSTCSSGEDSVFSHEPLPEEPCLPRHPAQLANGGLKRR
T9 sequence (P22455 22-802): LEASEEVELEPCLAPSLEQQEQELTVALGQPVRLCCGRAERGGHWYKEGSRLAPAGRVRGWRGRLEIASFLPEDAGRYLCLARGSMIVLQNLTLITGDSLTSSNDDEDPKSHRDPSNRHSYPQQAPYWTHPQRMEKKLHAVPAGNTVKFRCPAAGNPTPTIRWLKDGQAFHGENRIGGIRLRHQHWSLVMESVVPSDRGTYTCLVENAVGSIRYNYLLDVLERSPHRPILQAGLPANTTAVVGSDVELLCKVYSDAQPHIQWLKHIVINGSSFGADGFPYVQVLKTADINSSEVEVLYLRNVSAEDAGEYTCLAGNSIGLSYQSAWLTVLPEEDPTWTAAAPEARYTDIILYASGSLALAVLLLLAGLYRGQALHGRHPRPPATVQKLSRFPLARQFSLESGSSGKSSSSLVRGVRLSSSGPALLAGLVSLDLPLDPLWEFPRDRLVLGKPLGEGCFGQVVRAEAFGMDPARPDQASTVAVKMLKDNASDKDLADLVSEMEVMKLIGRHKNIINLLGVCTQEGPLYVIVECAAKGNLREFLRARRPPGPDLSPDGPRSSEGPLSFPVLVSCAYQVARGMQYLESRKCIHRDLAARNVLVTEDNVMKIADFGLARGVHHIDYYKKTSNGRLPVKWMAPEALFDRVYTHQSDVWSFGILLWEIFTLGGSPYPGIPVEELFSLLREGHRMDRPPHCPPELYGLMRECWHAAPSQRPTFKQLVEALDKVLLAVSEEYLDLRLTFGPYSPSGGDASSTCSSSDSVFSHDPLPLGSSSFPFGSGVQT

B1: FR1-A1: antibody specific for FGFR-1(IIIc) and/or FGFR-4(IIIc); VH/VL SEQ ID NOS:15, 16 (antibody, listed as Homo sapiens, V domains shown)
VH: MAQVQLVQSGAEVKKPGSSVKVSCKASGQTFTGYYMHWVRQAPGQGLEWMGRIIPILGIANYAQKFQGRVTITADKSTSTAYMELSSLRSEDTAVYYCARGGDLGGMDVWGQG
VL: LEIVLTQSPLSLPVTPGEPASISCRSSQSLRHSNGYNYLDWYLQKPGQSPQLLIYLASNRASGVPDRFSGSGSGTDFTLKISRVEAEDVGVYYCMQALQIPPTFGPGTKVDIKRTVAA
As a reminder, the Kd is the free concentration of one partner at which half of the binding sites on the other are occupied at equilibrium, for simple one-to-one binding. Broadly, the IC50 is the concentration that gives 50% inhibition. Regarding B1, the Kd with FGFR-2b was greater than 10000 nM; with FGFR-3b it was greater than 10000 nM; with FGFR-3c, greater than 10000 nM; with FGFR-1c, 0.7 nM; with FGFR-2c, greater than 10000 nM; with FGFR-1b, greater than 10000 nM. In the test with FGFR-1 (antibody), the “inhibition of ligand (FGF) mediated receptor phosphorylation” value was “significantly inhibits”. For the same molecule, the “receptor activation by the antibody by itself” value with FGFR-1 (no ligand) is given as “does not activated the receptor”. Also, in test [1], the “FGF-2 stimulated DNA synthesis (mitogenesis) of G18 cells” value was “decreased this stimulation in a dose-dependant manner”. Further, the “body weight loss compared to the control” value was roughly 9% in test [2] (2 mg/kg i.p.) and roughly 23% in test [2] (20 mg/kg i.p.). For the same molecule, the figures for the “reduction of non-fast food intake” value in [2] (2 mg/kg) and in test [2] (20 mg/kg) were roughly 14% and roughly 44%, respectively. Moreover, the IC50 with FGFR-1(IIIc) [3] (immobilized FGF-1, read-out: IC50, blocking FGFR-1(IIIc) binding to FGF-1) is roughly 5 nM; with FGFR-1(IIIc) [3] (immobilized FGF-2, read-out: IC50, blocking FGFR-1(IIIc) binding to FGF-2), roughly 10 nM. Besides, the “binding to FGFR-1(IIIc)” value in the test with FGFR-1(IIIc) [4] was “strong binding affinity”. Also, the “binding to the other FGFRs” value in the test on other FGFRs is reported as “little binding”. Besides, the “binding to FGFR-4” value with FGFR-4 was “moderate affinity”.

The values above are taken from patent US8263074B2, “Fibroblast growth factor receptor-1 inhibitors and methods of treatment thereof” (ImClone LLC, priority 2003, dated 2012).
